Source: PMC9482650, “Quantitative fragmentomics allow affinity mapping of interactomes” (Nature Communications, 2022)

T1: SNTB1, Q13884
T1 sequence (Q13884 107-205, limits assumed, looked up): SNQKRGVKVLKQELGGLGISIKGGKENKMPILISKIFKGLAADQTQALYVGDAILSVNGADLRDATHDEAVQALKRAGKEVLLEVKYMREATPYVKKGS

T2: MPDZ_10, O75970
T2 sequence (O75970 1624-1722, limits assumed, looked up): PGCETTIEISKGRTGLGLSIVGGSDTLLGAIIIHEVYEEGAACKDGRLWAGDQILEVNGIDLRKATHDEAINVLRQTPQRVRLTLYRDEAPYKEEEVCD

T3: PDZRN3_1, Q9UPQ7
T3 sequence (Q9UPQ7 244-349, limits assumed, looked up): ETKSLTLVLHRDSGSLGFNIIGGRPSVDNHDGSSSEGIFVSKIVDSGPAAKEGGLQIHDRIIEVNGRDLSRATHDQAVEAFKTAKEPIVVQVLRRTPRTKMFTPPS

T4: RHPN1, Q8TCX5
T4 sequence (Q8TCX5 508-602, limits assumed, looked up): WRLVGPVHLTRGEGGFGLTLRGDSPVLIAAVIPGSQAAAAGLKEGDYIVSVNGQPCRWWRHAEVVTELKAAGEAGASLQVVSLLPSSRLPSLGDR

T5: ARHGAP21, Q5T5U3
T5 sequence (Q5T5U3 45-169, limits assumed, looked up): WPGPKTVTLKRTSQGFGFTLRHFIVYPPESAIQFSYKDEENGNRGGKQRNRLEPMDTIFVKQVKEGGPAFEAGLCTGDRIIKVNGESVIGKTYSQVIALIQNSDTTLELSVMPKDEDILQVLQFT

T6: LRRC7, Q96NW7
T6 sequence (Q96NW7 1440-1537, limits assumed, looked up): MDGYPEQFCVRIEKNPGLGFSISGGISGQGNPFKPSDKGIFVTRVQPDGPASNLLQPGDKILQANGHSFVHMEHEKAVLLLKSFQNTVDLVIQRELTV

T7: MPP7, Q5T2T1
T7 sequence (Q5T2T1 134-230, limits assumed, looked up): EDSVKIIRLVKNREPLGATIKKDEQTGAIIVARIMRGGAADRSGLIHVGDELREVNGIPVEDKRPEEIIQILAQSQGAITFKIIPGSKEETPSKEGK

T8: DFNB31_2, Q9P202
T8 sequence (Q9P202 274-371, limits assumed, looked up): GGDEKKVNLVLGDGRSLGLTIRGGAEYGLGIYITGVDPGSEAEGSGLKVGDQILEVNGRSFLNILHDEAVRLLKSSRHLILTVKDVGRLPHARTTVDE

T9: FRMPD1, Q5SYB0
T9 sequence (Q5SYB0 52-145, limits assumed, looked up): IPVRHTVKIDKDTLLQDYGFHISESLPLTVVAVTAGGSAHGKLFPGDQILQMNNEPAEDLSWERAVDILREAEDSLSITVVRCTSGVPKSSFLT

T10: MPDZ_5, O75970
T10 sequence (O75970 695-796, limits assumed, looked up): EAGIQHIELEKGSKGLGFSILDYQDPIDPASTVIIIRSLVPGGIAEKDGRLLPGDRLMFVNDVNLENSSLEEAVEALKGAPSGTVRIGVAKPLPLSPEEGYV

T11: HTRA3, P83110
T11 sequence (P83110 354-453, limits assumed, looked up): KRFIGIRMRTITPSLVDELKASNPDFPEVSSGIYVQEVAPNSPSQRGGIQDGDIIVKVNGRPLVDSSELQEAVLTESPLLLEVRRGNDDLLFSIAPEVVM


These binders were tested against GORASP2, Q9H8Y8 (assay: holdup assay). Conditions: plain residues with an end cap or a label only (N-terminal biotin on a linker: ado-ado).
Set-up: key: below the threshold = too weak to quantify, mostly under pKd 3.1 to 4

Binder	pKd
AKADAQESRL [PLCB2, Q00722]	below the threshold
VISSDDLTEL [CAPN6, Q9Y6Q1]	below the threshold

These binders were tested against NHERF4_1, Q86UT5-2 (assay: holdup assay). Conditions: plain residues with an end cap or a label only (N-terminal biotin on a linker: ado-ado).
Chain of NHERF4_1, Q86UT5-2 (Q86UT5 other isoform, or with tags, fused parts or gaps): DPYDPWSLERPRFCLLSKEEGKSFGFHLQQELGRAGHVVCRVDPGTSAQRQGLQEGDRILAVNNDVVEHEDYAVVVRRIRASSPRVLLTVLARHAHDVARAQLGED
Set-up: key: below the threshold = too weak to quantify, mostly under pKd 3.1 to 4

Binder	pKd
AKADAQESRL [PLCB2, Q00722]	3.84
VISSDDLTEL [CAPN6, Q9Y6Q1]	3.94

Each binder was assayed against T1, SNTB1, Q13884 (assay: holdup assay). Conditions: plain residues with an end cap or a label only (N-terminal biotin on a linker: ado-ado).
Set-up: key: below the threshold = too weak to quantify, mostly under pKd 3.1 to 4

Binder	pKd
AKADAQESRL [PLCB2, Q00722]	4.43
VISSDDLTEL [CAPN6, Q9Y6Q1]	below the threshold

Each binder was assayed against GRIP2_6, Q9C0E4 (assay: holdup assay). Conditions: plain residues with an end cap or a label only (N-terminal biotin on a linker: ado-ado).
Chain of GRIP2_6, Q9C0E4 (Q9C0E4 648-740): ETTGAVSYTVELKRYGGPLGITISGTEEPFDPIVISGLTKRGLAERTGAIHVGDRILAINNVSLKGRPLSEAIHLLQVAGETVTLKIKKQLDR
Set-up: key: below the threshold = too weak to quantify, mostly under pKd 3.1 to 4

Binder	pKd
AKADAQESRL [PLCB2, Q00722]	below the threshold
VISSDDLTEL [CAPN6, Q9Y6Q1]	below the threshold

The binders below were run against T2, MPDZ_10, O75970 (assay: holdup assay). Conditions: plain residues with an end cap or a label only (N-terminal biotin on a linker: ado-ado).
Set-up: key: below the threshold = too weak to quantify, mostly under pKd 3.1 to 4

Binder	pKd
AKADAQESRL [PLCB2, Q00722]	below the threshold
VISSDDLTEL [CAPN6, Q9Y6Q1]	below the threshold

What follows are binders tested against DLG4_1, P78352 (assay: holdup assay). Conditions: plain residues with an end cap or a label only (N-terminal biotin on a linker: ado-ado).
Chain of DLG4_1, P78352 (P78352 62-152): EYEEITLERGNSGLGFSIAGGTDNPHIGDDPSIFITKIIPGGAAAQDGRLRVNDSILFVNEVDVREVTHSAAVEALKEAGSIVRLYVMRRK
Set-up: key: below the threshold = too weak to quantify, mostly under pKd 3.1 to 4

Binder	pKd
AKADAQESRL [PLCB2, Q00722]	below the threshold
VISSDDLTEL [CAPN6, Q9Y6Q1]	below the threshold

The binders below were run against T3, PDZRN3_1, Q9UPQ7 (assay: holdup assay). Conditions: plain residues with an end cap or a label only (N-terminal biotin on a linker: ado-ado).
Set-up: key: below the threshold = too weak to quantify, mostly under pKd 3.1 to 4

Binder	pKd
AKADAQESRL [PLCB2, Q00722]	4.42
VISSDDLTEL [CAPN6, Q9Y6Q1]	below the threshold

The binders below were run against T4, RHPN1, Q8TCX5 (assay: holdup assay). Conditions: plain residues with an end cap or a label only (N-terminal biotin on a linker: ado-ado).
Set-up: key: below the threshold = too weak to quantify, mostly under pKd 3.1 to 4

Binder	pKd
AKADAQESRL [PLCB2, Q00722]	4.53
VISSDDLTEL [CAPN6, Q9Y6Q1]	4.5

The binders below were run against T5, ARHGAP21, Q5T5U3 (assay: holdup assay). Conditions: plain residues with an end cap or a label only (N-terminal biotin on a linker: ado-ado).
Set-up: key: below the threshold = too weak to quantify, mostly under pKd 3.1 to 4

Binder	pKd
AKADAQESRL [PLCB2, Q00722]	below the threshold
VISSDDLTEL [CAPN6, Q9Y6Q1]	below the threshold

What follows are binders tested against T6, LRRC7, Q96NW7 (assay: holdup assay). Conditions: plain residues with an end cap or a label only (N-terminal biotin on a linker: ado-ado).
Set-up: key: below the threshold = too weak to quantify, mostly under pKd 3.1 to 4

Binder	pKd
AKADAQESRL [PLCB2, Q00722]	below the threshold
VISSDDLTEL [CAPN6, Q9Y6Q1]	below the threshold

What follows are binders tested against DLG2_3, Q15700 (assay: holdup assay). Conditions: plain residues with an end cap or a label only (N-terminal biotin on a linker: ado-ado).
Set-up: key: below the threshold = too weak to quantify, mostly under pKd 3.1 to 4

Binder	pKd
AKADAQESRL [PLCB2, Q00722]	below the threshold
VISSDDLTEL [CAPN6, Q9Y6Q1]	3.53

Each binder was assayed against PDLIM1, O00151 (assay: holdup assay). Conditions: plain residues with an end cap or a label only (N-terminal biotin on a linker: ado-ado).
Chain of PDLIM1, O00151 (O00151 1-87): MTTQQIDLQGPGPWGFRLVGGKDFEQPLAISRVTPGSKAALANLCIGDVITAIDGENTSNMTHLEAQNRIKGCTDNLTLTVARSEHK
Set-up: key: below the threshold = too weak to quantify, mostly under pKd 3.1 to 4

Binder	pKd
AKADAQESRL [PLCB2, Q00722]	below the threshold
VISSDDLTEL [CAPN6, Q9Y6Q1]	below the threshold

What follows are binders tested against T7, MPP7, Q5T2T1 (assay: holdup assay). Conditions: plain residues with an end cap or a label only (N-terminal biotin on a linker: ado-ado).
Set-up: key: below the threshold = too weak to quantify, mostly under pKd 3.1 to 4

Binder	pKd
AKADAQESRL [PLCB2, Q00722]	below the threshold
VISSDDLTEL [CAPN6, Q9Y6Q1]	below the threshold

What follows are binders tested against SCRIB_1, Q14160 (assay: holdup assay). Conditions: plain residues with an end cap or a label only (N-terminal biotin on a linker: ado-ado).
Chain of SCRIB_1, Q14160 (Q14160 718-814): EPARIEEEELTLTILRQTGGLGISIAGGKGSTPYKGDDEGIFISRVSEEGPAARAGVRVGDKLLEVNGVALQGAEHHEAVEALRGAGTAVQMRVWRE
Set-up: key: below the threshold = too weak to quantify, mostly under pKd 3.1 to 4

Binder	pKd
AKADAQESRL [PLCB2, Q00722]	4.2
VISSDDLTEL [CAPN6, Q9Y6Q1]	3.6

The binders below were run against T8, DFNB31_2, Q9P202 (assay: holdup assay). Conditions: plain residues with an end cap or a label only (N-terminal biotin on a linker: ado-ado).
Set-up: key: below the threshold = too weak to quantify, mostly under pKd 3.1 to 4

Binder	pKd
AKADAQESRL [PLCB2, Q00722]	below the threshold
VISSDDLTEL [CAPN6, Q9Y6Q1]	below the threshold

Each binder was assayed against T9, FRMPD1, Q5SYB0 (assay: holdup assay). Conditions: plain residues with an end cap or a label only (N-terminal biotin on a linker: ado-ado).
Set-up: key: below the threshold = too weak to quantify, mostly under pKd 3.1 to 4

Binder	pKd
AKADAQESRL [PLCB2, Q00722]	below the threshold
VISSDDLTEL [CAPN6, Q9Y6Q1]	below the threshold

The binders below were run against T10, MPDZ_5, O75970 (assay: holdup assay). Conditions: plain residues with an end cap or a label only (N-terminal biotin on a linker: ado-ado).
Set-up: key: below the threshold = too weak to quantify, mostly under pKd 3.1 to 4

Binder	pKd
AKADAQESRL [PLCB2, Q00722]	below the threshold
VISSDDLTEL [CAPN6, Q9Y6Q1]	below the threshold

What follows are binders tested against Inadl_4, Q8NI35 (assay: holdup assay). Conditions: plain residues with an end cap or a label only (N-terminal biotin on a linker: ado-ado).
Chain of Inadl_4, Q8NI35 (Q8NI35 547-651): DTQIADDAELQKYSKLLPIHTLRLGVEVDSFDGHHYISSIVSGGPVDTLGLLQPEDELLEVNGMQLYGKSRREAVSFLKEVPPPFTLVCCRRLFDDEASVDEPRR
Set-up: key: below the threshold = too weak to quantify, mostly under pKd 3.1 to 4

Binder	pKd
AKADAQESRL [PLCB2, Q00722]	below the threshold
VISSDDLTEL [CAPN6, Q9Y6Q1]	below the threshold

These binders were tested against Inadl_1, Q8NI35 (assay: holdup assay). Conditions: plain residues with an end cap or a label only (N-terminal biotin on a linker: ado-ado).
Chain of Inadl_1, Q8NI35 (Q8NI35 113-229): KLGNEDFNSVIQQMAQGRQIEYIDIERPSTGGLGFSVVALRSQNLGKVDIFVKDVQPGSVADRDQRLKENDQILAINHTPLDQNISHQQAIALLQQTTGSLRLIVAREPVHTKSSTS
Set-up: key: below the threshold = too weak to quantify, mostly under pKd 3.1 to 4

Binder	pKd
AKADAQESRL [PLCB2, Q00722]	below the threshold
VISSDDLTEL [CAPN6, Q9Y6Q1]	below the threshold

Each binder was assayed against Inadl_3, Q8NI35 (assay: holdup assay). Conditions: plain residues with an end cap or a label only (N-terminal biotin on a linker: ado-ado).
Chain of Inadl_3, Q8NI35 (Q8NI35 359-469): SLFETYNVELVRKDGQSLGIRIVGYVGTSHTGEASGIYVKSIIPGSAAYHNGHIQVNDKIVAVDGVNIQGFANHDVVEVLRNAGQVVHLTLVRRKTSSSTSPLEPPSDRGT
Set-up: key: below the threshold = too weak to quantify, mostly under pKd 3.1 to 4

Binder	pKd
AKADAQESRL [PLCB2, Q00722]	below the threshold
VISSDDLTEL [CAPN6, Q9Y6Q1]	below the threshold

These binders were tested against T11, HTRA3, P83110 (assay: holdup assay). Conditions: plain residues with an end cap or a label only (N-terminal biotin on a linker: ado-ado).
Set-up: key: below the threshold = too weak to quantify, mostly under pKd 3.1 to 4

Binder	pKd
AKADAQESRL [PLCB2, Q00722]	below the threshold
VISSDDLTEL [CAPN6, Q9Y6Q1]	below the threshold

The binders below were run against SCRIB_3, Q14160 (assay: holdup assay). Conditions: plain residues with an end cap or a label only (N-terminal biotin on a linker: ado-ado).
Chain of SCRIB_3, Q14160 (Q14160 999-1103): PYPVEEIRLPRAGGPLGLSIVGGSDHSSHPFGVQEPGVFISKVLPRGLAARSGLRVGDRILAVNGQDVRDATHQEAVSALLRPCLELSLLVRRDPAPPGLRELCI
Set-up: key: below the threshold = too weak to quantify, mostly under pKd 3.1 to 4

Binder	pKd
AKADAQESRL [PLCB2, Q00722]	4.44
VISSDDLTEL [CAPN6, Q9Y6Q1]	3.86

These binders were tested against FRMPD2_2, Q68DX3 (assay: holdup assay). Conditions: plain residues with an end cap or a label only (N-terminal biotin on a linker: ado-ado).
Chain of FRMPD2_2, Q68DX3 (Q68DX3 944-1038): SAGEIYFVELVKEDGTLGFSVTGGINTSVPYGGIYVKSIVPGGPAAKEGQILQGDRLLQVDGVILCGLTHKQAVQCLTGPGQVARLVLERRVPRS
Set-up: key: below the threshold = too weak to quantify, mostly under pKd 3.1 to 4

Binder	pKd
AKADAQESRL [PLCB2, Q00722]	below the threshold
VISSDDLTEL [CAPN6, Q9Y6Q1]	below the threshold

The binders below were run against TJP1_2, Q07157 (assay: holdup assay). Conditions: plain residues with an end cap or a label only (N-terminal biotin on a linker: ado-ado).
Chain of TJP1_2, Q07157 (Q07157 181-274): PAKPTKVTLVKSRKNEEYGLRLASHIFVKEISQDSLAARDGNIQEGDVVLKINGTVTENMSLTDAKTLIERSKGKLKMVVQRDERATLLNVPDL
Set-up: key: below the threshold = too weak to quantify, mostly under pKd 3.1 to 4

Binder	pKd
AKADAQESRL [PLCB2, Q00722]	below the threshold
VISSDDLTEL [CAPN6, Q9Y6Q1]	below the threshold

These binders were tested against NHERF4_4, Q86UT5 (assay: holdup assay). Conditions: plain residues with an end cap or a label only (N-terminal biotin on a linker: ado-ado).
Chain of NHERF4_4, Q86UT5 (Q86UT5 464-550): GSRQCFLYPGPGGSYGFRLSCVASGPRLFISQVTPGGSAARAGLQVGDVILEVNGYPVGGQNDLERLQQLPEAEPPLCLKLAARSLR
Set-up: key: below the threshold = too weak to quantify, mostly under pKd 3.1 to 4

Binder	pKd
AKADAQESRL [PLCB2, Q00722]	below the threshold
VISSDDLTEL [CAPN6, Q9Y6Q1]	below the threshold

These binders were tested against GORASP1, Q9BQQ3 (assay: holdup assay). Conditions: plain residues with an end cap or a label only (N-terminal biotin on a linker: ado-ado).
Chain of GORASP1, Q9BQQ3 (Q9BQQ3 1-208): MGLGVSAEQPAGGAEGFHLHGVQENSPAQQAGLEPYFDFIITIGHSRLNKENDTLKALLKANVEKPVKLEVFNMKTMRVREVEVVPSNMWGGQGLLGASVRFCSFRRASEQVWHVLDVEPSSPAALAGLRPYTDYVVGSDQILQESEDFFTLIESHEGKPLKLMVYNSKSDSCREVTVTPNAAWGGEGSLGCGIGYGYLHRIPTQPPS
Set-up: key: below the threshold = too weak to quantify, mostly under pKd 3.1 to 4

Binder	pKd
AKADAQESRL [PLCB2, Q00722]	below the threshold
VISSDDLTEL [CAPN6, Q9Y6Q1]	below the threshold

Each binder was assayed against IL16_1, Q14005 (assay: holdup assay). Conditions: plain residues with an end cap or a label only (N-terminal biotin on a linker: ado-ado).
Chain of IL16_1, Q14005 (Q14005 210-306): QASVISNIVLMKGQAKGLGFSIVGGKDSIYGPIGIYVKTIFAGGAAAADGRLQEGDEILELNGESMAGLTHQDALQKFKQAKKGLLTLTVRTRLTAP
Set-up: key: below the threshold = too weak to quantify, mostly under pKd 3.1 to 4

Binder	pKd
AKADAQESRL [PLCB2, Q00722]	3.94
VISSDDLTEL [CAPN6, Q9Y6Q1]	below the threshold
